The source of these data is patent US9988424 (DUKE UNIVERSITY, dated 2018).

In test [1] the target is AE.con gp140CF. Put plainly: ELISA, OD405 at 10 ug/ml.
Test [2] deals with B.con gp140CF. Nature of the test: ELISA, OD405 at 10 ug/ml. (An ELISA detects its analyte on a solid surface through an enzyme-linked reagent.)
Test [3] deals with Con 6 gp120. Nature of the test: ELISA, OD405 at 10 ug/ml.
The target of another test is C.CAP206 gp140CF.12 (HIV-1). Nature of the test: ELISA, OD405 at 10 ug/ml.
A further test addresses T1, gp70 B.CaseA2 V1/V2 (HIV-1 V1V2 on murine leukemia virus gp70).
T1 construct: also called B.gp70CaseA2 V1/V2; gp70 B.CaseAV1V2
T1 chain: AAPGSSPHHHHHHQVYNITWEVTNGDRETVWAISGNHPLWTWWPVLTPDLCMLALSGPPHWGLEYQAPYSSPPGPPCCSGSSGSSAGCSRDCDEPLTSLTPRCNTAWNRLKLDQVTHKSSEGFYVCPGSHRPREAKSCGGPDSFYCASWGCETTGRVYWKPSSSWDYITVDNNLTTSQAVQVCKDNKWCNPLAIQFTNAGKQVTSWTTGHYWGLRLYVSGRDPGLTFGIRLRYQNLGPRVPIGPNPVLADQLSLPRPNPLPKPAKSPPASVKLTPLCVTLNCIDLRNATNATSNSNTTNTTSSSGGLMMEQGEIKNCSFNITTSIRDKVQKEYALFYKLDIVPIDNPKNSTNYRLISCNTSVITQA
Put plainly: ELISA, OD405 at 10 ug/ml.

The next test deals with 92TH023 gp120 (HIV-1).
A further test has as its target T2, AE.A244 gD+ gp120 (HIV-1).
T2 construct: domain: gp120; also called AE.A244 gp120gD+
Put plainly: ELISA.

A further test concerns the target T3, AE.92TH023 gp120 gD+ (HIV-1).
T3 construct: domain: gp120; also called AE.92TH023 gp12 gD+
Nature of the test: ELISA.

A further test concerns the target T4, AE.97CNG2XF gp140CF (HIV-1).
T4 construct: also called E.97CNGX2F gp140CF
Put plainly: ELISA.

In test [4] the target is C.1086 gp120 (HIV-1). Put plainly: ELISA.
Another test addresses AE.A244 gp120 delta 11 (HIV-1).
The next test has as its target AE.A244 V1V2 Tags (HIV-1). Put plainly: SPR, mAb captured on anti-Fc, V1/V2 tags injected. On the technique in general: In SPR one partner is held on a chip, and binding of the other changes the refractive index at the surface.
The next test concerns the target T5, A.9004SS V1V2 Tags.
T5 Env construct: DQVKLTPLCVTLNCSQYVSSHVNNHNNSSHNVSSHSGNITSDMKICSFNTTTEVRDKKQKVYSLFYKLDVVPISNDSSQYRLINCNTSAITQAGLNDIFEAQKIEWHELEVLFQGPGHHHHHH
Put plainly: ELISA, OD405.

The target of test [5] is T6, AE.con gp140CF.
T6 construct: also called AE.con.env03 gp140CF
Put plainly: ELISA, OD405.

Another test concerns the target B. 681-7 gp140C. Put plainly: ELISA, OD405.
Another test addresses B. 684-6 gp140C. Nature of the test: ELISA, OD405.
The next test addresses B.040 gp140C. Nature of the test: ELISA, OD405.
Another test deals with T7, B.62357 140C.
T7 construct: also called B.62357 gp140C
Put plainly: ELISA, OD405.

For the next test, the target named is B.63521 gp140C. Nature of the test: ELISA, OD405.
The next test concerns the target T8, B.63521_V1V2 Tags.
T8 Env construct: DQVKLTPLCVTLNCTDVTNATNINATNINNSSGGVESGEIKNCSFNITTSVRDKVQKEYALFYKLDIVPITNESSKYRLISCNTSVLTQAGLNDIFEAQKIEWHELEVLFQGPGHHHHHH
Put plainly: ELISA, OD405.

The target of the next test is T9, B.Case A2 V1/V2 Tags.
T9 Env construct: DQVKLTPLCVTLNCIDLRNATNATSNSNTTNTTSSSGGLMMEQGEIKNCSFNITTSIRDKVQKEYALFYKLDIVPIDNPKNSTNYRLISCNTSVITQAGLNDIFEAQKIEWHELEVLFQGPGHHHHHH
Put plainly: ELISA, OD405.

The target in test [6] is T10, B.con gp140CF.
T10 construct: also called B.con.env03 gp140CF
Nature of the test: ELISA, OD405.

The target of another test is T11, C.1086 gp140.
T11 construct: also called C.1086gp140C
Put plainly: ELISA, OD405.

The target in test [7] is Con 6 gp120. Nature of the test: ELISA, OD405.
A further test has as its target T12, D.9009SA V1V2 Tags.
T12 Env construct: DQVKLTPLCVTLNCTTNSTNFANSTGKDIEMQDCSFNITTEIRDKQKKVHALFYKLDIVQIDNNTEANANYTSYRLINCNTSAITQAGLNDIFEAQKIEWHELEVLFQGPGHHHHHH
Nature of the test: ELISA, OD405.

The next test deals with T13, G.con gp140CF.
T13 construct: also called G.con.env03 gp140CF
Put plainly: ELISA, OD405.

A further test deals with T14, B.HXB/BAL gp140CFI (HIV-1, UniProt P04578 33-680).
T14 construct: also called B.HxB/Ba gp140 CFI
Nature of the test: ELISA, OD405.

Test [8] concerns the target C.1086 gp120 (HIV-1). Put plainly: ELISA, OD405.

B1: PG16 reverted unmutated ancestor antibody (antibody, V domains shown)
VH: QVQLVESGGGVVQPGRSLRLSCAASGFTFSSYGMHWVRQAPGKGLEWVAVISYDGSNKYYADSVKGRFTISRDNSKNTLYLQMNSLRAEDTAVYYCAREAGGPIWHDDVKYYDFNDGYYYYYYMDVWGKGTTVTVSS
VL: QSALTQPASVSGSPGQSITISCTGTSSDVGSYNLVSWYQQHPGKAPKLMIYEVSKRPSGVSNRFSGSKSGNTASLTISGLQAEDEADYYCCSLTDRSHRIFGGGTKLTVL
notes: also called PG16 RUA; PG16_RUA
Take B1: the binding result with AE.con gp140CF [1], in the test with B.con gp140CF [2], in the test with Con 6 gp120 [3], with C.CAP206 gp140CF.12 and in the test with gp70 B.CaseA2 V1/V2 was “no binding (tested: 10 ug/ml)” in each case.

B2: PG16 (antibody, V domains shown)
VH: QEQLVESGGGVVQPGGSLRLSCLASGFTFHKYGMHWVRQAPGKGLEWVALISDDGMRKYHSDSMWGRVTISRDNSKNTLYLQFSSLKVEDTAMFFCAREAGGPIWHDDVKYYDFNDGYYNYHYMDVWGKGTTVTVSS
VL: QSALTQPASVSGSPGQTITISCNGTSSDVGGFDSVSWYQQSPGKAPKVMVFDVSHRPSGISNRFSGSKSGNTASLTISGLHIEDEGDYFCSSLTDRSHRIFGGGTKVTVL
notes: also called mAb PG16; bnAb PG16
Consider B2, for which the IC50 with 92TH023 gp120 lay in the range of 10 to 100 nM.

B3: CH59 (antibody, V domains shown)
VH: EVQLVESGGGLVQPGRSLRLSCAASGFTFDDGAMHWVRQAPGKGLEWVSGISWNSNIIAYADSVKGRFTISRDNAKNSLYLEMNSLRVEDTALYYCAKDSPRGELPLNYWGQGTLVTVSS
VL: SYELTQPPSVSVSPGQTARITCSGDALPKNYAYWYQQKSGQAPVLVIYEDSKRPSGIPERFSGSSSGTMATLTISGAQVEDEADYYCYSTDSSGNHRVFGGGTKLTVL
notes: also called mAb CH59
With B3, the EC50 with AE.A244 gD+ gp120 was found to be 0.01 µg/mL; with AE.92TH023 gp120 gD+, 0.023 µg/mL; in the test with AE.97CNG2XF gp140CF, 0.066 µg/mL; in the test with C.1086 gp120 [4], 0.02 µg/mL. In the test with AE.A244 gp120 delta 11, this molecule displayed an off-rate constant (koff) of 0.00013 s⁻¹. The on-rate (kon) with AE.A244 gp120 delta 11 turned out to be 58300 M⁻¹ s⁻¹. For the same molecule, the dissociation constant (Kd) in the test with AE.A244 V1V2 Tags amounted to 1 nM.

B4: CH59 reverted unmutated ancestor antibody (antibody, V domains shown)
VH: EVQLVESGGGLVQPGRSLRLSCAASGFTFDDYAMHWVRQAPGKGLEWVSGISWNSGSIGYADSVKGRFTISRDNAKNSLYLQMNSLRAEDTALYYCAKDSPRGELPFDYWGQGTLVTVSS
VL: SYELTQPPSVSVSPGQTARITCSGDALPKKYAYWYQQKSGQAPVLVIYEDSKRPSGIPERFSGSSSGTMATLTISGAQVEDEADYYCYSTDSSGNHRVFGGGTKLTVL
notes: also called CH59 RUA; CH59_RUA
As to B4, the binding result with A.9004SS V1V2 Tags, in the test with AE.con gp140CF [5], with B. 681-7 gp140C, with B. 684-6 gp140C, with B.040 gp140C and with B.62357 140C was “no binding (tested: 10 ug/ml)” each time. Besides, the binding result with B.63521 gp140C, with B.63521_V1V2 Tags, with B.Case A2 V1/V2 Tags, in the test with B.con gp140CF [6], with C.1086 gp140 and in the test with Con 6 gp120 [7] was “no binding (tested: 10 ug/ml)” throughout. The binding result with D.9009SA V1V2 Tags, with G.con gp140CF, in the test with B.HXB/BAL gp140CFI and with C.1086 gp120 [8] was “no binding (tested: 10 ug/ml)” in each case.

For orientation: IC50 means the concentration at which inhibition is half-maximal. The low end stands for higher potency, the high end for lower potency. Broadly, the EC50 is the concentration that produces a half-maximal response. Low values mean a more potent agent, high ones a less potent agent. One may read the koff as the first-order rate constant of dissociation. Lower therefore signals a long-lived complex. In general, kon refers to the rate constant with which the complex forms. As usually defined, the Kd is the equilibrium constant for the complex coming apart.
